The record followed here is article PMC2670953 (Journal of molecular biology, 2009).

This experiment concerns the target DNA polymerase II (Pol II) of E. coli (E. coli, UniProt P21189 1-783). Description: SPR. Background: In SPR one partner is held on a chip, and binding of the other changes the refractive index at the surface.

DNA polymerase II (Pol II) of E. coli, sequence (P21189 whole entry): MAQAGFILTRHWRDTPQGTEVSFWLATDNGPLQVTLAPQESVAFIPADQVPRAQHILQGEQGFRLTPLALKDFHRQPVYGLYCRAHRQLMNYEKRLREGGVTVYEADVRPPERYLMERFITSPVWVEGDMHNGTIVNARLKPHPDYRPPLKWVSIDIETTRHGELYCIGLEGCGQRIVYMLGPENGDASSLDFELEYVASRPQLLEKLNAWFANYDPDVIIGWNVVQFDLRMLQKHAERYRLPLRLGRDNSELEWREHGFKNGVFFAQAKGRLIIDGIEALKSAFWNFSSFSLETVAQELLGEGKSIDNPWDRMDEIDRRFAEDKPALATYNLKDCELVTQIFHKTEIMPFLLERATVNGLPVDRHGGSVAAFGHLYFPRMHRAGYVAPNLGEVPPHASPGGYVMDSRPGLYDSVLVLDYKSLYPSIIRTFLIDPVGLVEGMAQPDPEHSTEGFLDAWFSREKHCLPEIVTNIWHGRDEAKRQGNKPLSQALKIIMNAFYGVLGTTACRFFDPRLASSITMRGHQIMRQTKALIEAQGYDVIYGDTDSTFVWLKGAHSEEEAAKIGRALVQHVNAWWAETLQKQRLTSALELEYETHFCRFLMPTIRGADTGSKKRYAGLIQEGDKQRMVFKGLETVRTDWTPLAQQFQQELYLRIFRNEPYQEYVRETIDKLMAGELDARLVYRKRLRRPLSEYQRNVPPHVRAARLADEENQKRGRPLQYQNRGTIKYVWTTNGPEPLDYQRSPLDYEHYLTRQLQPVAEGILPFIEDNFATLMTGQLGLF

B1: mutant β^148–152 sliding clamp, N-terminally His6 and cAMP-dependent kinase motif tagged (natural protein, E. coli)
chain: MKFTVEREHLLKPLQQVSGPLGGRPTLPILGNLLLQVADGTLSLTGTDLEMEMVARVALVQPHEPGATTVPARKFFDICRGLPEGAEIAVQLEGERMLVRSGRSRFSLSTLPAADFPNLDDWQSEVEFTLPQATMKRLIEATQFSMAAAAAAYYLNGMLFETEGEELRTVATDGHRLAVCSMPIGQSLPSHSVIVPRKGVIELMRMLDGGDNPLRVQIGSNNIRAHVGDFIFTSKLVDGRFPDYRRVLPKNPDKHLEAGCDLLKQAFARAAILSNEKFRGVRLYVSENQLKITANNPEQEEAEEILDVTYSGAEMEIGFNVSYVLDVLNALKCENVRMMLTDSVSSVQIEDAASQSAAYVVMPMRL
On to B1, for which the Kd (usually the free concentration of one partner at which half of the binding sites on the other are occupied at equilibrium, for simple one-to-one binding) is 182 nM; the koff – broadly, a measure of how fast the partners let go of each other – stood at 0.00273 s⁻¹; the kon (as a rule, the rate constant with which the complex forms) was found to be 15100 M⁻¹ s⁻¹.
